Measured values taken from the DeepSol protein solubility set.

test: soluble on expression in E. coli; label from the status in PepcDB or PDB records

Row | Sequence | soluble on expression in E. coli
1 | MHHHHHHSSGVDLGTENLYFQSNAMKEELIERFTRYVKIDTQSNEDSHTVPTTPGQIEFGKLLVEELKEVGLTEVTMDDNGYVMATLPANTDKDVPVIGFLAHLDTATDFTGKNVKPQIHENFDGNAITLNEELNIVLTPEQFPELPSYKGHTIITTDGTTLLGADDKAGLTEIMVAMNYLIHNPQIKHGKIRVAFTPDEEIGRGPAHFDVEAFGASFAYMMDGGPLGGLEYESFNAAGAKLTFNGTNTHPGTAKNKMRNATKLAMEFNGHLPVEEAPEYTEGYEGFYHLLSLNGDVEQSKAYYIIRDFDRKNFEARKNTIENIVKQMQEKYGQDAVVLEMNDQYYNMLEKIEPVREIVDIAYEAMKSLNIEPNIHPIRGGTDGSQLSYMGLPTPNIFTGGENYHGKFEYVSVDVMEKAVQVIIEIARRFEEQA | soluble
2 | MHIKYDQAMDDETKVEAILYATRNPLSVRSISLILGIEAGAISRIIKKLRLEYKKRNTSLEIAKIGNKYRIQLKKEYYDFAYRVMEPELSKYETGFLATVALNEGASLSFFRKRYGSRTDDMISKLKTMSLIRTSKKGNGTAIYLGENFEKVFGITKKELLERATEYDRQN | soluble
3 | MHILVVSVNYRTAPVEFREKLTFQAAELERAMTTLQNQKSVLENVIVSTCNRTEIYAVVDQLHTGRYYIKKFLADWFQLEIEEVAPYLTIFEQDGAIDHLFRVTCGLDSMVVGETQILGQIKDSFLEAQQVKATGTIFNELFKQVITLAKRAHSETTIGESAMSVSYAAVELGKKIFGELTDCHVLILGAGKMGELALQNLYGSGARKVTVMNRTLSKAEIMAEKYMGHAKPLSELQCALLEADILISSTGASDYVITKEMMTKVEKMRSGRPLFMVDIAVPRDIDPAIDELEGSFLYDIDDLQGVVEANRAERLKEAEKIQFMIEEEIVLFKTWLSTLGVVPLISALRDKALAIQSETMESLERKIPNLSDRERKVISKHTKSIINQLLKDPILVAKEIAAEEGADEKLALFAKIFDLEMEDVESRAEEVEHKRVWTPSVPSL | not soluble
4 | MHKDIKLVKETEIRKPIGSPFIVYFSSISNNTHRFIEKLGFQHKRIPVDITQSITVSNEYVLICPTYSGGGNQVEGAVPKQVIQFLNNKHNRELCRGVIASGNTNFGDTFCLAGTVISKKLNVPLLYQFELLGTKNDVEQTQKIIANFFQNSN | soluble
5 | MHKPCVIIPVFDHELAVPDVVKAVRAAGLPCVLVDDASSPACAAVLRQLAQGDEIYLVCLPVNQGKGGAVMAGFREAARLGFSHALQVDADGQHDLSDIPVFLEQSRQCPEALICGYPQYDESVPKGRLYARYLTHVWVWINTLSLQIRDSMCGFRLYPLAPVLVLIDAVRIGKRMDFDSEILVRLAWRGQAMRWLPTRVHYPQDGLSHFRLFHDNALISTMHAKLFFGMLMRLPLILWRRWRSLEHHHHHH | not soluble
6 | MHKRFAALAAPLLYLACASAQADTMRCGSALVSVGDRAFEVQQKCGDPDHRDDVGYTLGSYDRREFKVEEWVYGPRNGVTYILTFEANKLKRIEFKR | not soluble
7 | MHLLRTQPGGFVPDDGIAHLAQTPAELVILCSGDSHLALLAEAARALPDDYPSLRLANPMQLQNHASVDLYVEEVLRHARVILLSLHGGIGYWRYGVEQLVALAERGALLIPVPGDDRPDPELSALGNLPAEQAERFWQYLRQGGLENAGQFYRCLASQCLGRDYAWREPQALPRVALFHPRHAEATLEHWRADWQAGRPVVALLFYRTHLQAANTAFIARFCERLAAQGLNPLPIALASLKESACLAQVEDWLERSDAALIVNTTGFAQSNPEAPELRPFRRDVPVLQAICSLDNRPLWLDNPQGLGPRDLAMHVALPELDGRIVTRPISFKGLAWRSERSESDVVCYLADDERMDFVAELARRWAELARKPNAEKRVALVLANYPTRDGRIGNGVGLDTPAAALNILRALRQQGYPVDGLPASGTELIRQLLGGVSNDLEHLDLRPCAQSLALDDYLACFARLPERNRQAVLARWGEPQQDPMFRDGRMMVAGLRYGLTFVGIQPARGYQLDPAAVYHDPDLVPPHGYLAFYFWLRHAYRADALLHVGKHGNLEWLPGKGVGLSAECWPDALLGPLPNIYPFIVNDPGEGAQAKRRTQAVIIDHLMPPLTRAESYGPLRDLERLADEFYDASLLDPRRAEQLRGEILVLLRDNRLDREIGLQLSDDPDSWLPQLDAYLCDLKESQIRDGLHVFGESPSGRLRLDTLLALLRVPRGDGKGANAGLLKSLADDLGLGFDPLACDMGEAWQGARPACLEERGGEPWRTLGDTRERLELLALHWIERCLGGESPPATWRASGEVLRGLCEQVAPTLDACGGAEIDGLLAALEGRFVPAGPSGAPSRGRLDVLPTGRNFFSVDVRNLPTPTAWRIGFQSANLLLERHLQEHGDHLRQLGLSVWGTATMRTGGDDIAQALALLGVRPVWQAGSQRVADFEILPVSLLDRPRVDVTLRVSGFFRDAFANLIRLFDAAVQAVAELDEAEELNPLAARVRLERQRLEAQGTAPAEARRQAGWRIFGAKPGAYGAGVQGAIEERLWETRADLAEVYLNWGGYAYGAADDGTPARERFAQRLERLQAVLHNQDNREHDLLDSNDYYQFQGGMLAAVETLRGAPVASYHGDHSQPDNPRIRTLKEELNRVVRARAVNPKWIAGMKRHGYKGAFELAATVDYLCAFDATSELIDDHQYALLADAYLLDAETREFVRQHNPQALRDMAERLVEAQRRGLWQEPGAYREALENL | not soluble
8 | MHLPPKLALTTGVLLVALPLATPAWGQPPTPASPLVQQLNNGNWLDPKEAETLRDELYYQRAIHAYMTMLPALNVIGMRDGSEKVFGAGYNVLPVWKERMDARTMVPTPNADVIYSMSYLDLKKTGPLVVKAPANVIGMFTDFFQRTLTDVGAIGPDRARGGLYLILPPDYDGHVPSSYFVVKSPTYNVFLFFRTIMGQGKGKPDPAPAVKAAETTRVYPLWAEEKDIKPMEFPDGSGKHINMMYPVDQEYWTKLKEFVDYEPVSAIDPELRGVLASIGIVKGQPFKPTAREQELLKRAVETAPKMILAMRQLGREDKRHLYYKDRQWERAWAGATAEWMQDSYLDVNQRATFFQIAYSSAPAMVMRTTGAGSKYPFTARDANGEFLNGSATYKLRMPPDAPAALFWAVTAYNVTDGTMPETDQLMPSTNGYYDIPKQKDGSTEIWFGPQKPADVADAAFIKTIPNRNFLVTLRLYGAEDAFYDQTWKPDDVVKVKLEHHHHHH | not soluble
9 | MHNQTVRATVFKANAAAPQTKQIYEDDFSELYGEDIIAPPYNIIELKTIAEYSTILQQCIDAYRVNITGFGFDVEYTFDVNASDVDQAKKKRAEKDWARLEAFYKCLHFDESAEMILGYAIEDREKTGNGFMEVLRDGAGKPAGIEYLDVKYMRVCGAGEPVEVSFVYEENGKMKRIKRQKRFRKYVQMINGKKVFFKEYGDPRKMDIRTGEYVNTLAEKYQANEAIHLKIGSGVYGVPRWIGNIVNLYGARKAEELNFMYFKQGRHVPAAITVENGMLSEASYRELQEYMNDLESVENAHKFLLIEAEGIAKEKDLHGGEDITPVSVEIKSLAEILQNDALFLEYDEKSRNKLRSAFRLPPLYTGEAQEYNRATADTARKITEEQVFQPERKTLVNKLNTLLLPELNIHDVRLTLKGPDFRDPLEIAKVLGPFITAGAVSPNDLRDLAGRVLGKTLEEWPEDIYKRPAGQDAEKTNLAALMQELKESIEDIKTS | not soluble
10 | MHPKRTPGTCFPGRGRPAPPRISVTVPEEVSQQEDLLVARSSELGGNSNTAVALTFNHALTAVRFVCGNDMREGTVKQVRLKNVYSRGTYNMGTQTWSGLDTPASFSQALDKVTTGTADEALTSEAQTFMMLPQRFPEGAQIEVLFTDDTHTGHTLIADIKGSEWPMGKTVTYKISSSSLNWTYTLDVTALADFTYTGGTQQYCVTSYRQNAQGEKEAAEWTAQYAEDGTTWTDTKPVWLTAFTASGTGGEFAQPCDATVEAQTGISNDLHENALKAATAKGSETTPYNLSNNTGGNTVENTANCYVVNAPGYYSLPLVYGNAIKNSATNASAYTSTVTGTNILNPFINHAGNGITDPYISGNGCTPAKAELVWQDAMNLVTDIKYNADSNGGNISFKVDRSSIRQGNAVIAIKDVSDAILWSWHVWVTDEDINNVIEITNHQNVKYNFMPVNLGQCDGNTITYEERSCKVKFIAGDQSKEITIKQLANVIATGSNAPFYQWGRKDPLYPSNGMGNTTKIWYDKEGIPSTANPMKGTFSAGNDCIKNCILNPNLMHNRYNGDYTYYNLWSADNKTTSANDNPVNKTIYDPCPVGFKLPASNAFTGFTTTGESVSSSTQVNGTWSSSEKGWYFYTNSEKTQSIFFPALGYRSYSTMRPGSIGTQGCFWSAHPVAKGNNYYLRTSSVDVQPTYMVDRGFGYALRPCQD | not soluble
11 | MHRRSIINHSRPDKLKRGMHVEIASNVINDLQFFDQQIRWAKADLVQQVSRNRLNRARTYRGYLNQCLPHELVADIQRAVIKSINAISLINLEHHHHHH | not soluble
12 | MHYCDLDIAECDGVYPPSEDSFLIIEYASCSGKAIEIGCGTGIVSICFLKRGCDIEAVDISDLAVECAKDNASRNGLTLKVYRSDLFSGVSGTYDTILFNAPYIPVEGEDASWSGGRNLEVVSRFLGQAREHLSASGQIYIVLSDLTDNEGMFRMMGYDYFIIKKISFEFEAIVLYKLTLKALEHHHHHH | soluble
13 | MIDHALALTHIDERGAARMVDVSEKPVTLRVAKASGLVIMKPSTLRMISDGAAAKGDVMAAARIAGIAAAKRTGDLIPLCHPLGLDAVSVTITPCEPDRVKILATTTTLGRTGVEMEALTAVSVAALTIYDMCKAVDRAMEISQIVLQEKSGGRSGVYRRSASDLACQSR | soluble
14 | MIDIHNHILVDIDDGPKTIEKSIALLKQAKDEGVTSIVATPHHLHPRYDNTFQQVLVKLAELRTHPEVQALDIKLFPGQEIRITDSILKGLDNGSIQGINRSKYLLIEFPTGEVPHYTKQLFFEIQSRGYIPIIAHPERNRSIAKNPEILYELVANGALSQLTSSSLVGGFGKNIQKLSLQFIECNLAHFVASDAHSCDQRPFLMQELFHNHKLKKYSNDIEALLRNASSVINDNFVYLDRPTKPGKVKSFLKWF | not soluble
15 | MIDKKTYNEIGVHIPSILLPKEGIDMQKWSVVACDQYTSEPEYWEEVEKKVGDNPSTLHLIFPEIYLEHGNADERIKRINNEMKRYINEGILVSQKPCMLLVDRSTPHTKSRKGLILAVDLEKYDYSAGSQTLIRATEGTVIERLPPRVKIRENAILELPHVMLLIDDPDKTVIEPLAGKLDSFEKVYDFELMMNGGHIRGYRIDDGETLKGILKAIEALADPEVFKSKYKVGDDKGVLLFAVGDGNHSLASAKVHWENVKKSLSEAEVEDHPARFALVEVVNVHDDGIVFEPIHRVLFNIEPESVLNALQDFFGSSCCSLEKFDSLESVNKRLSELKREEAVHSFGFVTDRSFGVFTVQNLKHNLEVATLQGFLDYYLGKQKEAKVDYIHGEDVVTKLGSKPGNIGFYLPSMEKHDLFKTVILDGVLPRKTFSMGEAEEKRFYLECRKIVKD | soluble
16 | MIEFSENSHRKSLIEELPRIVERGEKEAQKILDGLSKSQRITLQTNELVLPTKAIGELNKFYGQTIKTENNNEFLNRLIYGDNLLAMQAFLAGDPETGLPSMRGKIDLIYIDPPFDSKANYRTKIHLPTADVEQMPSVIEQFAYSDTWKDGTKSYLEMIVPRLVLMKELLSEKGSIYVHIDWHVGHYVKVIMDEIFGRENFVNEIVWKKTNSPKAQSKGFGTQHDVLYIYRKTPQFIFNQIKKEPDEDYLKSYVYDDNDGRGPYQTVALVAGGIQRSENRKIFEFHGVRAPWLYSLENLERFWSDGRIFKTKTGYRLKVYLKDIALRLYLIYGLTRK | not soluble
17 | MIELDQTNIPKHVAIIMDGNGRWAKQKNKMRIFGHTNGVTAVRKAVAYARQIGVEVLTLYAFSSENWSRPEQEISALMSLFMQALDREVKKLHKNNICLKIIGDVSRFSETLQEKIKKAENLTEKNTALTLNIAANYGGCWDIIQAAKQIAEKVKKEEMSVSDINNSTFQHHLATQNAPPVDLLIRTSGEQRISNFLLWQIAYAELYFSDVLWPDFNQLEFNRAIASYQQRHRRFGGTE | not soluble
